Data on 15 molecules can be found in patent publication US20240116985A1 (published 2024).

Starred links: 1 amine or outer side, 2 acyl side, 3 side chain; linkers in the order of their positions; H or OH if unused. Positions of bridges follow the written chain, without caps; N, C: chain ends. Non-standard residues stand in square brackets, D forms with d. Primed or numbered codes have the meaning given here. B5(16) = 2-amino-2-(pent-4-en-1-yl)hept-6-enoic acid = 2,2-bis(4-pentenyl)glycine (stitching residue), C=CCCCC(CCCC=C)(N[*:1])C(=O)[*:2]; B5(4) = 2,2-bis(4-pentenyl)glycine = 2-amino-2-(pent-4-en-1-yl)hept-6-enoic acid (stitching residue), C=CCCCC(CCCC=C)(N[*:1])C(=O)[*:2]; B5(9) = 2-amino-2-(pent-4-en-1-yl)hept-6-enoic acid (2,2-bis(4-pentenyl)glycine), C=CCCCC(CCCC=C)(N[*:1])C(=O)[*:2]; B5(14) = 2-amino-2-(pent-4-en-1-yl)hept-6-enoic acid (bis-pentenylglycine), C=CCCCC(CCCC=C)(N[*:1])C(=O)[*:2]; Phe(3-Cl) = N[C@@H](Cc1cccc(Cl)c1)C(=O)O; Phe(4-Cl) = N[C@@H](Cc1ccc(Cl)cc1)C(=O)O; Ala(2-furyl) = N[C@@H](Cc1ccco1)C(=O)O; His(τ-Me) = Cn1cnc(C[C@H](N)C(=O)O)c1; Bta = N[C@@H](Cc1csc2ccccc12)C(=O)O; αAllylPro = C=CC[C@@]1(C(=O)O)CCCN1; 3Thi = N[C@@H](Cc1ccsc1)C(=O)O; S8 = C=CCCCCCC[C@](C)(N)C(=O)O

Test [1] addresses T1, full-length beta-Catenin (Uniprot ID P35222) (Homo sapiens (Human), UniProt P35222 2-781).
T1 construct: 'mature' is the nearest allowed form; also called bCat; B-Catenin
T1 sequence: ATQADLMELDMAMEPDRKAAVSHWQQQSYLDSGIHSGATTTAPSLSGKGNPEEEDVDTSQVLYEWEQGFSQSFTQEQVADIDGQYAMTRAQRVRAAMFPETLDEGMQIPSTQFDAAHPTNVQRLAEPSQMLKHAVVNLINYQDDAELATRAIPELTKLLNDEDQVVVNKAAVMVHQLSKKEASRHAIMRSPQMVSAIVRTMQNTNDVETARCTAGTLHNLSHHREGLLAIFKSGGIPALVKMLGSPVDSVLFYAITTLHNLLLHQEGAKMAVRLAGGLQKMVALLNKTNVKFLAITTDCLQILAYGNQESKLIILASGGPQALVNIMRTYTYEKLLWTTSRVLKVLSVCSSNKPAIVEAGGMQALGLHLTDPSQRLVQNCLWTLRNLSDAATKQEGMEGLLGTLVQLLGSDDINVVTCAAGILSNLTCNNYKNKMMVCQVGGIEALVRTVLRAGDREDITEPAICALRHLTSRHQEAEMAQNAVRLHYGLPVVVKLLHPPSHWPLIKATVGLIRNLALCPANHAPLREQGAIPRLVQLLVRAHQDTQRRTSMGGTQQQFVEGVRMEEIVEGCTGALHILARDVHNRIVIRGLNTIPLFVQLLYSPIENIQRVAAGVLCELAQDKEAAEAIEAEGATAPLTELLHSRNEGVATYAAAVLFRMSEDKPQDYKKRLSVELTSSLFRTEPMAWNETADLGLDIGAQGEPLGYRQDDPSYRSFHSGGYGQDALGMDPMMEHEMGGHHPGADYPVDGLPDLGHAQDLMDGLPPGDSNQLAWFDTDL
Nature of the test: fluorescence polarization competition, full-length beta-catenin with 5FAM-TCF4(10-53) probe as competitor. As to the method:
(§1) The plate was incubated protected from light for 60 minutes at 20° C. prior to read. Reads were performed on a CLARIOstar plate reader (BMG Labtech) in duplicate, and data were fitted to a 1:1 binding model with hill slope using an in-house script. All provided concentrations are final concentrations.

Test [2] deals with T2, full-length beta-Catenin (Uniprot ID P35222) (Homo sapiens (Human), UniProt P35222 1-781).
T2 construct: the AlphaScreen used a Histidine (Nickel Chelate) detection kit, so a His tag is likely but not described; also called B-Catenin; bCat
T2 sequence: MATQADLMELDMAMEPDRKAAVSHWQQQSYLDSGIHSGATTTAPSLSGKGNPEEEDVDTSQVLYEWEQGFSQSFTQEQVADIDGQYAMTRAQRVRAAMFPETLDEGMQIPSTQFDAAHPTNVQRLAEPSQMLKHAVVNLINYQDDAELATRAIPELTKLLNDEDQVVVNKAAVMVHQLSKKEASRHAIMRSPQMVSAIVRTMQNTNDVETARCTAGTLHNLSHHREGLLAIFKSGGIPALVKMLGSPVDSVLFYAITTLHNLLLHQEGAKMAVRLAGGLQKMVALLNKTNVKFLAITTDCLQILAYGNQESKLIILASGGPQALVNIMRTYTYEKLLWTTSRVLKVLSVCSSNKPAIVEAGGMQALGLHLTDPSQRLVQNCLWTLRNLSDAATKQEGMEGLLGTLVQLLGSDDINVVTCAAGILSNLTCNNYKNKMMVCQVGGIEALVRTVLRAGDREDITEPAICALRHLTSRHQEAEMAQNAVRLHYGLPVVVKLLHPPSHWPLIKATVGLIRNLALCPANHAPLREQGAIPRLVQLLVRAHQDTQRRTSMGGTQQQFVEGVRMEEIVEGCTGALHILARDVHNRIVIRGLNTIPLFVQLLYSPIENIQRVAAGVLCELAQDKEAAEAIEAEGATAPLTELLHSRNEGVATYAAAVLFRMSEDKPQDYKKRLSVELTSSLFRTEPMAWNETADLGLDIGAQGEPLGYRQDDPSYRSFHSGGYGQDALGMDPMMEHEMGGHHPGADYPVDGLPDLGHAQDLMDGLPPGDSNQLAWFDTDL
Nature of the test: FP competition vs 5FAM-TCF4(10-53) probe on full-length beta-catenin. As to the method:
as §1

B1: I-655 (peptide)
peptide: Ac-[αAllylPro]DI[B5(16)]DEWAFQ[S8]F[Bta]Q-NH2
modifications: staple 1-4, 4-11
notes: Stapled peptide composition
For B1, the EC50 in test [1] worked out at 183 nM.

B2: I-651 (peptide)
peptide: Ac-[αAllylPro]DI[B5(16)]DESAFQ[S8]F[Bta]Q-NH2
modifications: staple 1-4, 4-11
notes: Stapled peptide composition; earlier-eluting HPLC peak (staple isomer)
In turn, B2 returned an EC50 in test [1] of 186 nM.

B3: I-645 (peptide)
peptide: Ac-[αAllylPro]DI[B5(9)]DEAAFQ[S8]F[Bta]V-NH2
modifications: staple 1-4, 4-11
notes: Stapled peptide composition
B3: it took 395 nM to reach a half-maximal effect in test [1] (EC50).

B4: I-647 (peptide)
peptide: Ac-[αAllylPro]DI[B5(9)]DELAFQ[S8]F[Bta]Q-NH2
modifications: staple 1-4, 4-11
notes: as for B2
Molecule B4 returned an EC50 in test [1] of 445 nM.

B5: I-658 (peptide)
peptide: XDIXDEALFQXFXQ
modifications: not fully specified; As printed: Ac-PL3-Asp-Ile-B5-Asp-Glu-Ala-Leu-Phe-Gln-S8-Phe-BztA-Gln-NH2; N-terminal Ac; PL3 at 1, B5 at 4, S8 at 11 (stapled 1-4 and 4-11); BztA at 13; C-terminal NH2
notes: as for B2
In test [1], B5 had an EC50 of 546 nM.

B6: I-650 (peptide)
peptide: Ac-[αAllylPro]DI[B5(16)]DEFAFQ[S8]F[Bta]Q-NH2
modifications: staple 1-4, 4-11
notes: Stapled peptide composition; later-eluting HPLC peak (staple isomer)
Turning to B6, the EC50 in test [1] was 137 nM.

B7: I-326 (peptide)
peptide: Ac-[αAllylPro]DA[B5(4)]DDAA[3Thi]V[S8]FWQ-NH2
modifications: staple 1-4, 4-11
notes: Ac-PL3-Asp-Ala-B5-Asp-Asp-Ala-Ala-3Thi-Val-S8-Phe-Trp-Gln-NH2; stapled peptide composition
Turning to B7, the EC50 in test [2] was found to be 1.75 µM.

B8: I-308 (peptide)
peptide: Ac-[αAllylPro]DA[B5(4)]DDAA[Phe(4-Cl)]V[S8]FWQ-NH2
modifications: staple 1-4, 4-11; not fully specified; printed as Ac-PL3-Asp-Ala-B5-Asp-Asp-Ala-Ala-4C1F-Val-S8-Phe-Trp-Gln-NH2
notes: Ac-PL3-Asp-Ala-B5-Asp-Asp-Ala-Ala-4C1F-Val-S8-Phe-Trp-Gln-NH2; stapled peptide composition
B8 displayed an EC50 in test [2] of 5 µM.

B9: I-327 (peptide)
peptide: Ac-[αAllylPro]DA[B5(4)]DDAA[Ala(2-furyl)]V[S8]FWQ-NH2
modifications: staple 1-4, 4-11; not fully specified; printed as Ac-PL3-Asp-Ala-B5-Asp-Asp-Ala-Ala-2FurA-Val-S8-Phe-Trp-Gln-NH2
notes: Ac-PL3-Asp-Ala-B5-Asp-Asp-Ala-Ala-2FurA-Val-S8-Phe-Trp-Gln-NH2; stapled peptide composition
Turning to B9, the EC50 in test [2] is 4.72 µM.

B10: I-306 (peptide)
peptide: Ac-[αAllylPro]DA[B5(4)]DDAA[Phe(3-Cl)]V[S8]FWQ-NH2
modifications: staple 1-4, 4-11
notes: Ac-PL3-Asp-Ala-B5-Asp-Asp-Ala-Ala-3C1F-Val-S8-Phe-Trp-Gln-NH2; stapled peptide composition
For the molecule B10, the EC50 in test [2] came out at 5 µM.

B11: I-329 (peptide)
peptide: Ac-[αAllylPro]DA[B5(4)]DDAA[His(τ-Me)]V[S8]FWQ-NH2
modifications: staple 1-4, 4-11; not fully specified; printed as Ac-PL3-Asp-Ala-B5-Asp-Asp-Ala-Ala-1meH-Val-S8-Phe-Trp-Gln-NH2
notes: Ac-PL3-Asp-Ala-B5-Asp-Asp-Ala-Ala-1meH-Val-S8-Phe-Trp-Gln-NH2; stapled peptide composition
B11 returned an EC50 in test [2] of 5 µM.

B12: I-330 (peptide)
peptide: Ac-[αAllylPro]DA[B5(4)]DDAA[His(τ-Me)]V[S8]FWQ-NH2
modifications: staple 1-4, 4-11
notes: as for B11
B12 showed an EC50 in test [2] of 5 µM.

B13: I-305 (peptide)
peptide: Ac-[αAllylPro]DA[B5(4)]DHAAFV[S8]FWQ-NH2
modifications: staple 1-4, 4-11
notes: Ac-PL3-Asp-Ala-B5-Asp-His-Ala-Ala-Phe-Val-S8-Phe-Trp-Gln-NH2; stapled peptide composition
Molecule B13 had an EC50 in test [2] of 3.98 µM.

B14: I-304 (peptide)
peptide: Ac-[αAllylPro]DA[B5(4)]DHAAFV[S8]FWQ-NH2
modifications: staple 1-4, 4-11
notes: as for B13
In test [2], B14 returned an EC50 of 5 µM.

B15: I-331 (peptide)
peptide: Ac-[αAllylPro]DA[B5(14)]DDAAHV[S8]FWQ-NH2
modifications: staple 1-4, 4-11; not fully specified (residue 9)
notes: Ac-PL3-Asp-Ala-B5-Asp-Asp-Ala-Ala-3meH-Val-S8-Phe-Trp-Gln-NH2; stapled peptide composition
Turning to B15, the response in test [2] was half-maximal at 5 µM (EC50).
